Experimental data as given in patent US20030031667A1 (CELLDEX RESEARCH, published 2003).

T1: human macrophage mannose receptor (human, UniProt P22897 19-1456)
T1 construct: whole, on cells; In the immunoprecipitations it came from cell lysates; also called human B11 antigen; B11 target antigen
T1 sequence (looked up): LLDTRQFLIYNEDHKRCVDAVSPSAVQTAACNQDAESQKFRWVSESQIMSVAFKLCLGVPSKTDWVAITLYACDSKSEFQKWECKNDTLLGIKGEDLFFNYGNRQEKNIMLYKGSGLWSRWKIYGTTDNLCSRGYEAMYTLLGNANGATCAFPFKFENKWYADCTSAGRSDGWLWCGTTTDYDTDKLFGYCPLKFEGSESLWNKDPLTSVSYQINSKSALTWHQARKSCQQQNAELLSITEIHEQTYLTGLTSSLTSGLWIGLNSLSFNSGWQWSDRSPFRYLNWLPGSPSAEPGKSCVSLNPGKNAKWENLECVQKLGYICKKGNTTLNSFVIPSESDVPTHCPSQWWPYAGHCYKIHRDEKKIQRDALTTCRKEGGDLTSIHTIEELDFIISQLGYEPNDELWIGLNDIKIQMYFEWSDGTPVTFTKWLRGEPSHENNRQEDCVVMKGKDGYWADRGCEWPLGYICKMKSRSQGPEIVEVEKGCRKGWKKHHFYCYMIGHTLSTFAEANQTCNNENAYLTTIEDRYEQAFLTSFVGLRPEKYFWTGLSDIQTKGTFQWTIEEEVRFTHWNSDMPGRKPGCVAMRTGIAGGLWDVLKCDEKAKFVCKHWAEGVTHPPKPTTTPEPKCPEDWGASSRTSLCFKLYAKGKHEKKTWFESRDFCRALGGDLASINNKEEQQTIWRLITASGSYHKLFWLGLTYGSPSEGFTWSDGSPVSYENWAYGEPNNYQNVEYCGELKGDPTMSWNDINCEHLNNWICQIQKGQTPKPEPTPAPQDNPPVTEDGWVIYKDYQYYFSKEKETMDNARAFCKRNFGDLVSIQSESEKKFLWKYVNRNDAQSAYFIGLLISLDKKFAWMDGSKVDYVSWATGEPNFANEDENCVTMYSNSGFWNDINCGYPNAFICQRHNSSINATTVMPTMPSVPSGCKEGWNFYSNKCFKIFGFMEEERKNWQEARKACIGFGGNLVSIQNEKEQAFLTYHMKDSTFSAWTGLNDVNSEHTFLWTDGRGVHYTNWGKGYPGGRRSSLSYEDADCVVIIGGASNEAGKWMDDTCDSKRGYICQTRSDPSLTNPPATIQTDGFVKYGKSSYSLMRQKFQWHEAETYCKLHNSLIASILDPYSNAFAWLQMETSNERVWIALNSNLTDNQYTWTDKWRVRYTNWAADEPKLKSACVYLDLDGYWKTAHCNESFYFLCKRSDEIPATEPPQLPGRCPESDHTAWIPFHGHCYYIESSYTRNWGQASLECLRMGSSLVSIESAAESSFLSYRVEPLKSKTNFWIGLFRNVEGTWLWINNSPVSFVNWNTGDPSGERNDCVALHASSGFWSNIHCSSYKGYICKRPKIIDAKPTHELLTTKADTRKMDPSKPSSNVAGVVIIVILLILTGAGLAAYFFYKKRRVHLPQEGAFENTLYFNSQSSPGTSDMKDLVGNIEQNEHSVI

B1: human monoclonal antibody B11 (antibody, human IgG1, V domains shown)
VH: EVQLVQSGAEVKKPGESLRISCKGSGDSFTTYWIGWVRQMPGKGLEWMGIIYPGDSDTIYSPSFQGQVTISADKSISTAYLQWSSLKASDTAMYYCTRGDRGVDYWGQGTLVTVSS
VL: DIQMTQSPSSLSASVGDRVTITCRASQGISRWLAWYQQKPEKAPKSLIYAASSLQSGVPSRFSGSGSGTDFTLTISGLQPEDFATYYCQQYNSYPRTFGQGTKVEIK
notes: Human IgG1 kappa from a HuMAb mouse hybridoma; also called B11 HuMab; mAb B11
B2: F(ab')2 fragments of human monoclonal antibody B11 (other)
VH: EVQLVQSGAEVKKPGESLRISCKGSGDSFTTYWIGWVRQMPGKGLEWMGIIYPGDSDTIYSPSFQGQVTISADKSISTAYLQWSSLKASDTAMYYCTRGDRGVDYWGQGTLVTVSS
VL: DIQMTQSPSSLSASVGDRVTITCRASQGISRWLAWYQQKPEKAPKSLIYAASSLQSGVPSRFSGSGSGTDFTLTISGLQPEDFATYYCQQYNSYPRTFGQGTKVEIK
notes: See the note of m1 on the VH/VL conflict; also called B11 F(ab')2

How the values were obtained:
[1] = target: T1, human macrophage mannose receptor; test: flow cytometry, hybridoma supernatant on monocyte-derived human dendritic cells
Experimental: The hybridomas secreting human IgG were tested for reactivity with various types of blood cells by flow cytometry. Dendritic cells were prepared from adherent mononuclear cells by culturing for 5-7 days in media supplemented with GM-CSF and IL-4. Granulocytes (PMN), monocytes and lymphocytes were obtained from heparanized whole blood. The cells were incubated with hybridoma supernatants from IgG-positive clones at 4° C. Binding was detected with a FITC-labeled goat anti-human IgG(Fc) probe. The cell associated fluorescence was determined by analysis using a FACScalibur instrument.

[2] = target: T1, human macrophage mannose receptor; test: flow cytometry on monocyte-derived dendritic cells, anti-human IgG-F(ab')2-PE probe
Experimental: The reactivity of F(ab′)2 fragments of human monoclonal antibody B11 with dendritic cells from human tissues was evaluated by flow cytometry.
F(ab′)2 fragments were prepared by digestion of purified B11 mAb with pepsin under standard conditions. The F(ab′)2 fragments were purified by protein L chromatography. Dendritic cells, prepared fresh from human monocytes by culture in GM-CSF and IL-4, were incubated with whole antibody or F(ab′)2 antibody fragments for 1 hour at 4° C. The cells were washed before incubation with anti-human IgG-F(ab′)2-PE probe for 1 hour at 4° C. The cells were washed again prior to analysis using a FACScalibur instrument and Cellquest software.

Row | Binder | binding result [1] | binding result [2]
1 | B1 | binds | –
2 | B2 | – | binds
